{"source": "the DeepSol protein solubility set"}
{"assay": "soluble on expression in E. coli; label from the status in PepcDB or PDB records"}
{"sequence": "MSLNFLDFEQPIAELEAKIDSLTAVSRQDEKLDINIDEEVHRLREKSVELTRKIFADLGAWQIAQLARHPQRPYTLDYVRLAFDEFDELAGDRAYADDKAIVGGIARLDGRPVMIIGHQKGRETKEKIRRNFGMPAPEGYRKALRLMQMAERFKMPIITFIDTPGAYPGVGAEERGQSEAIARNLREMSRLGVPVVCTVIGEGGSGGALAIGVGDKVNMLQYSTYSVISPEGCASILWKSADKAPLAAEAMGIIAPRLKELKLIDSIIPEPLGGAHRNPEAMAASLKAQLLADLADLDVLSTEDLKNRRYQRLMSYGYALEHHHHHH", "soluble on expression in E. coli": "not soluble"}
{"sequence": "MSLNFPHLSKQSLGLYPVVDDVSWIERLLPLGINTIQLRIKDPYQPDLEQQIARAIELGRQYDAQVFINDYWQLAIKHGAFGVHLGQEDIEDSNLSQLSTAGICLGLSTHGYYELLRIVQINPSYIALGHIFSTTTKQMPSKPQGLVRLALYQKLNDSIPYGESVGYPTVAIGGIDQSNAEQVWQCGVSSLAVVRAITLSESPKQVIEFFDQLMNTTSTSLVMEDYRAYEGHHHHHH", "soluble on expression in E. coli": "not soluble"}
{"sequence": "MSLNINYPAEYEIGDKVFTCIGAALFGQISAASNCWSNHVGIIIGHNGEDFLVAESRVPLSTITTLSRFIKRSSNQRYAIKRLDAGLTEQQKQRIVEQVPSRLRKLYHTGFKYESSRQFCSKFVFDIYKEALCIPVGEIETFGELLNSNPNAKLTFWKFWFLGSIPWERKTVTPASLWHHPGLVLIHAEGVETPQPELTEAVEGHHHHHH", "soluble on expression in E. coli": "not soluble"}
{"sequence": "MSLNKIKILPLAIALALSGCGSDETTPIDTGSHVASPDWQDQIIYFLMIDRFNDGDSALNDQGQNEFDPTSDKKFSGGDLVGVSDKLSYIEDLGATSIWITPPVANQWWDAEQNYGGYHGYWARDFQKVDEHFGDMESYQALAREVHARNMFLIQDIVTNHVGNFFTYDDPYSYDPSLPCQGFRLIKNALPAGQELPYPLNMNECKTDGTGSYHWTPTITDHNDPVQEKTWQLSDLDDLNTSDPEVRAYLKESYRKWIREVGVDGFRIDTVKFVEHDFWSDFLHADDGVMTQAVDTGRDNFLTFGEVFETSTPYHTEGEEKMLTYIGESGSPKQLTSVLNFPLQATMTRVFASGQPTDYLRFRLEKMMEMFPNPYIMPNFIDNHDMPRFLSQGSVNDMKQALITMMSVPGIPVIYQGTEQAMSAARDAMFAGGYREDGNYVDSFDQNSEMYLFIQELAKLRTENKVMTRGEIKVIGSDKAGAGVFAFTRTLDNDEVLVVMNTSNSPMLMNQLDVEQAGGTVFKQQIMSNWADAPEQLVADENGHVTLELPAKSAVIYSKTSSNQSVNTPDLNIQLAQDWEGKTITGDIVIAGSANANEKLNLVVDGNLETAQTITVGADGQFSVTLSTRHFAIGEQQHRFAIYSTEKKAGIEDVNFVSNLSWSNTPDDTIDDAGDAQDGVGGPNGNYSLPTDPTFDKDNSQLAINKAEVFTVGSNVRLTFTMDKITDTWLPPNGFDHVGFTIFIDLPEEAATNLSELPKINASMPNGTWSRNAVVFGWQSSIYNTKGANATTWGEAVTPAPTVTVDKANNTISMDFASDALGRPESLDGIRFYVTTWDLDGLSATYRPLEQDKGPWNFSGGASDESKIWDDLPIITLSEGHHHHHH", "soluble on expression in E. coli": "soluble"}
{"sequence": "MSLNKNEKVKIAYVGIGNRGQQIIEDFARTGMVEVVALCDVDMGAKHTQKVIGMYPKAKQFRDFRQMFDKAGKEFDAVAIATPDHSHFPISMLALASGKHVYVEKPLARTFYEAELLMQAALKRPNLATQVGNQGHSEANYFQFKAWMDAGIIKDVTAVTAHMNNEGHHHHHH", "soluble on expression in E. coli": "not soluble"}
{"sequence": "MSLNKVSLAQIAKAAGVSKMTASRVLRDEGGFSESTRARVMAEIDRLGYVPNRLATVFAGDQRSTFVGVSIPELGNEIFAQVLEGIDRKLGAFGHQTVLGMTEHALEQEEKWLETVLSWQPAGLIVTGRSHTPKSIQLLSGAGIPLVEIWDFNSSPLDMSVGLNHFDSGYSMGRYLTGLGYRQFGYVGTSHDTANAASARLAGYAKVIGDSGGSLKKQLLLKDAPGFYTGYYGTEQLLAANSDVEVIYYQNDNMAVGGLNYCQKRGLSIPGDIGIAGWGDLPIASILPYRLTSTAVPHLRIGMIAAEMVLSQINGEARRRSQDVGFTLIPGSTVRSQLEEGHHHHHH", "soluble on expression in E. coli": "soluble"}
{"sequence": "MSLNLTIGTSKFNPPFEVWSGNNSSLYGFDIDLMQEICRRLHATCTFEAYIFDDLFPALKNREVDLVIASMIITDERKKHFIFSLPYMESNSQYITTVDSKISTFDDLHGKKIGVRKGTPYARQVLSENRNNQVIFYELIQDMLLGLSNNQVDASLMDYEAAKYWMASEPYAYKLIGKKYKLIGKKISIGEGYSIMANPDQFVLIKKINKILLEMEADGTYLRLYSEYFEGHHHHHH", "soluble on expression in E. coli": "soluble"}
{"sequence": "MSLNLWGDRVGYSKYKYEGLLNLCLEVFQRLGYTKEDSYTIGEVLLLADLFGIESHGVQRLTLYYKGIRNGSIKVKNHMNIVKESPVSVVIDGDGGMGQIISKKAMERAIDKAKKTGIGMAIVKNSNHFGIAGYYSRMAERKGLMGIAMTNTRAIVLPTYGREQMLGTNPISIAMPARPIPFLLDMATSVITRGKVEVYSKNNQKLNYGWAMDDEGRKTDNPDKVLKLANGNTGGLLPLGGDTEIFGGHKGYGISFAVEMFTSILSGGLTSDEIRGNNNTNGVCHAFAAIDYGLFDDKNAIEKRMSAYMQKIRNSKKAYGASRIYTHGEKELEAYEDRMENGIPINENTIVEIKEICDYVDIDINNYLKEGHHHHHH", "soluble on expression in E. coli": "soluble"}
{"sequence": "MSLNNRIIYVVSDSVGETAELVVKAALSQFNGSADDTHVRRIPYVEDIGTINEVISLAKADGGIICFTLVVPEIREYLIAEAEKANVLYYDIIGPLIDKMETAYGLTAKYEPGRVRQLDEDYFKKVEAIEFAVKYDDGRDPRGILKADIVLIGVSRTSKTPLSQYLAHKRLKVANVPIVPEVDPPEELFNVDPKKCIGLKISPDKLNHIRKERLKSLGLNDKAIYANINRIKEELEYFEKIVDRIGCQVVDVSNKAVEETANIIHHLKTKNIEGHHHHHH", "soluble on expression in E. coli": "soluble"}
{"sequence": "MSLNPVNGAILSIEISHPNGFEIDENISAYHDAEYYMDRIFDSGNYDSLIVLTSIKILSQHWEIDNDMVVTSQSIRQLAIDTINSKAESGTIKNYWFKLQSLCEEFKNLSQETLSLSVFDNQVLTLNVNGHGIFRKSAFFESFANQKLNSADGKLMLIFNKFETFISRKSYHKLHEELLQLRKISANEITNLFTKHIEGKISTNEIQTILKDLEQIPGIVEIVKSLIGSSGFELIVDANSISSKELGAFHKISTVMIFKNIMETHKTLLLDLVVLFLTCETNDQIVEFVNQIRATLVQYDVMEVVFTTCLNKGEVETKNMGQVQNSIFWSSVVATHSQLKRLIESLQLNDGYEYFYNNVLPDDYLVDVVIELINNKEYFFLQKKFLTKLNQEGHHHHHH", "soluble on expression in E. coli": "not soluble"}
{"sequence": "MSLNRLSIPYSNKSLDYYFFVIQEASVKRAVLARSGEFQATNANFDNTRQLEQWQSLLLSRPSAIISDPIDSQAIVSAIRRYNREKIPVGIIDTPADGGDVAITVSFDNFQGGVMAAEEIVNRLITRYGRPKGTVLNCYGALASVAWRLRKEGMDSVFAKYPGITYLARPTDGQLEKMLSVTLSTLSEYPDLDAVHAPSDSPSRGIVTALQQKGRWKKIGEAGHVIFVNIDGEPIALKWIQDGYMDACISQDPVAYGEIAVDMIVKHALKGEAVPLGTYQDKKYFWESGEIVQGKTGPTLIIPAFVINRDNVQDPRHWASVAEKTWGIPEGHHHHHH", "soluble on expression in E. coli": "soluble"}
{"sequence": "MSLNSISHIPKAEIHVHLEATITPSLCRKFAKRNKVILSDDFFGSEYAYQWEDFYDFLKKYDIVTSVIHTPEDYYELTYAYLKECASHNVLYVEAMVSSTHAKAKGMTYQSFLDSIQEASLNAERDFGIVSRYLMNGIRHLGPESVQGTAEEVLKNPHPAIVGFGLAGDELHFPPHLFSKTFDMLKEENFPITVHAGEWDGPENIRKAINLLHPTRLGHGVRSIEDLDLVKEIIEKDIVLETCPTSNIATKIYENYENHPVKKLHELGAKVTVNSDDPPFFNATIQGEYEAMSKIGFADDVLISMTRNAIEYSFLDNQKKKEVLTKLNEGHHHHHH", "soluble on expression in E. coli": "soluble"}
{"sequence": "MSLNSNHKQPIFDNVLNRKFQVNEPNRAYVSDMTYIPTHEGWLYLTVVIDLFSRKVVGWNMSSRMKADTVCDALTMAIWQRKPKAGLIVHSDRGSQYASKQYRSLLNQHGLVGSMSKKGDCWDNSVAESFFSRLKDELVHWRNYQTRREAKQDILDYMTMFYNNQRLHSSLDYLSPNQFENRYWGLMKKVAEGHHHHHH", "soluble on expression in E. coli": "soluble"}
{"sequence": "MSLNTPQSAIIPDHAQAGIFIEADFAANRLNDIKAACRASLDALTALKARFPDDILGLTIAFGSKAWATFGHTDEGSEIKPFSEMGNGLAPSTQHDMSIHIQSFRQNAAYALAQSVLGAFGDSICVASEEHGLRLYQDRGLDGFVDGTENPQGDENVREVAIIPEGKPDAGGSYVLLQKYLHDLKKWDAVPVAEQEASVGRGKETDDEFGRDVRLPDSHLGRVNLKENGVGLKIVRRSLPFGKISGEHGLMFTAYCRTLHNIEAQLLSMFGDTDGKTDLLLRHLSAAVSGGYYYAPSVERLQNLEGGSHHHHHH", "soluble on expression in E. coli": "soluble"}
{"sequence": "MSLNTVLRLPLKYPSTNKELKSHEYFESQIAYTGCLIATTTHMVDHISWRLNNDLKTITLTPICISNPFQLECRTISLLLPSQVYPHCIDAVYHGEEGGYLVVDVIDENYLWITLRIEMNDFLHNTKNFRPLTLDQFESWGHISVPYSFELRSNPYCLRVLDERNVVVSLKDGGLLHFQRSSVLADFNVFNCEESAHFHLGGILDGIFKSGRADLTVDGVSSNAAIDATIVPDPSKSLIATLTVSKTIKFWDLKEHSLLRERTIHPQDTNTWLSFGPARYLQCYGNVLGVHSLLQTKHSTSIDFWDVSPLKEDQKSYKILHTVELLSPTINGAPSDSPFSNDIWFIQDFTLKFEKGNFTVLWKSNNSSILTIYDLKNLAENDKPPKLSQWTLSGSEGHHHHHH", "soluble on expression in E. coli": "not soluble"}
{"sequence": "MSLNVIDTLPAFRDYCSELASSHGSLAADAERASGFRYGHEDWLVQFKRDGAGIGLLDPQALAAAGADWNDFNRAVGDAVWILHDSLQDLPGFDELGMEPQRLFDTEIAARLLGLKRFGLAAVTEHFLGLTLAKEHSAADWSYRPLPRDWRNYAALDVELLIELETKMRAELKRQGKMEWAQEEFDYALKEGLGPRKEHLIPWMHVSHITEVMRDRQALAIVRALWTRRDELAREYDIAPTLLLSDSSIIEVAKRKPHNAAQFRSIRSINERVRIHTDSEQDKMFERYAPIQRKIKPSMWKNIIQDALALPPSEWPDVDGGAARRHESQSASAPKSIRVWKERYPERLQVLNRVRKAVSQIAEDTRTPVEIVIKPQYLRNLCWTDEPRKRDVARFLSEQGARDWQVSLVAESVSRAIEGHHHHHH", "soluble on expression in E. coli": "not soluble"}
{"sequence": "MSLNYLSGQAANPRGIIGEITTKIWSSYFEDLSKWTINNTEMAGVTKVLDVGYGGGSNVKNLVNLDQNLTIYGIDISKESYKTASALNKKAISDGKVKLTVADVADMDYREESFDLVYAIQTHMYWDNLQKGFEEIYRVMSQEGVLILSSEKDKIDYHMDEYKTTASLTALLKEIGFREVVEKEKGNWVLYTVKKEGHHHHHH", "soluble on expression in E. coli": "soluble"}
{"sequence": "MSLPDTSPDLPAMSPLAVYRQAVEQRGFAPDEAQRRAAEALERCFQALHEAHRHGAIQGVYLWGPVGRGKTWLMDHFYQCLRVPARRQHFHHFMQWVHQRQFELTGTADPLRALARELARDVRVLCFDELFVSDIGDAILLGSLLRIMFEEGVVLVATSNQPPEQLYADGFNRERFLPAIEAIQRHMAVVAVDGGQDHRLHPGRAEQRYWVVEAGQASGFAELFARLSAGEAASTQPIELGHRPLAVHRHSESVLWCSYAQLCEAPLSALDFIGLCDRYRAILMDDLPCLSASQREGRIARGTEDGAQLVEAGDRELPQLSVHDDGVRRFIALVDECYDRKVPLYLEARVPLEALYTEGYLAFAFRRTLSRLREMQLARFGSDSEGGSHHHHHH", "soluble on expression in E. coli": "soluble"}
